Data reported in paper PMC10432269, “Diverse modes of H3K36me3-guided nucleosomal deacetylation by Rpd3S” (Nature, 2023).
No end group written: not given here.

T1: unmodified histone H3 residues 1–10 peptide
T1 construct: Histone H3 residues 1-10, unmodified; also called H3_(1–10); H3un; source: synthetic peptide
T1 peptide: ARTKQTARKS


How the values were obtained:
[1] = target: T1, unmodified histone H3 residues 1–10 …; assay: ITC; 25 °C, MicroCal PEAQ-ITC; 20 mM Tris 7.5, 50 mM NaCl, 5% glycerol; one set of binding sites model; conditions: both partners purified
[2] = target: the molecule itself; assay: cryo-EM structure; free Rpd3S complex, subunits co-expressed in Sf9 and purified together; stabilised by GraFix (glycerol gradient with 0.15% glutaraldehyde); 3.2 Å overall, local maps 2.7 Å and 3.2 Å

Row | Kd [1] [µM] | Binder | binding result [2]
1 | ~39 | EDFCSACNQSGSFLCCDTCPKSFHFLCLDPPIDPNNLPKGDWHCNECKFK (domain or fragment, cysteine pairing not given here; also: Zn2+ bound) [PHD1 domain of Rco1] | 
2 |  | Rco1 (natural protein, S. cerevisiae, UniProt Q04779 1-684, looked up, Rco1, S. cerevisiae, full length; residues 107-565 (Rco1-A) and 262-358 (Rco1-B) are modelled in the structure; The complex was captured on strep beads by the Strep-tag of Rco1; the tag was then cleaved with TEV protease before anion exchange and SEC; Two copies (Rco1-A, Rco1-B) stand in the Rpd3S complex; also called Rco1-A; Rco1-B; not shown: Strep-tag, N-terminal, cleaved) MDTSKKDTTRSPSHSNSSSPSSSSLSSSSSKEKKRPKRLSSQNVNYDLKRRKIITSEGIERSFKNEHSNLAVEDNIPEEEPKELLEKDSKGNIIKLNEPSTISEDSKVSVTGLPLNKGPSEKIKRESLWNYRKNLGGQSNNSEMTLVPSKRFTQVPKNFQDLNRNDLKTFLTENMTEESNIRSTIGWNGDIINRTRDREPESDRDNKKLSNIRTKIILSTNATYDSKSKLFGQNSIKSTSNASEKIFRDKNNSTIDFENEDFCSACNQSGSFLCCDTCPKSFHFLCLDPPIDPNNLPKGDWHCNECKFKIFINNSMATLKKIESNFIKQNNNVKIFAKLLFNIDSHNPKQFQLPNYIKETFPAVKTGSRGQYSDENDKIPLTDRQLFNTSYGQSITKLDSYNPDTHIDSNSGKFLICYKCNQTRLGSWSHPENSRLIMTCDYCQTPWHLDCVPRASFKNLGSKWKCPLHSPTKVYKKIHHCQEDNSVNYKVWKKQRLINKKNQLYYEPLQKIGYQNNGNIQIIPTTSHTDYDFNQDFKITQIDENSIKYDFFDKIYKSKMVQKRKLFQFQESLIDKLVSNGSQNGNSEDNMVKDIASLIYFQVSNNDKSSNNKSASKSNNLRKLWDLKELTNVVVPNELDSIQFNDFSSDEIKHLLYLKKIIESKPKEELLKFLNIENPENQSE | binds
